Where a chain is given by its changes, count along the chain named.
B1: SR-AB22: second-round (CDR-H3 mutagenesis) antibody, lineage SR-AB14; CDRs SEQ ID NO: 108-113 (antibody, V domains shown)
VH: QVQLVESGGGVVQPGRSLRLSCAASGFTFRSYVMHWVRQAPGKGLEWVAVISHEGSLKYYADSVKGRFTISRDNSKNTLYLQMNSLRAEDTAVYYCAVPRIAARRGGFGYWGQGTLVTVSS
VL: NFMLTQPHSVSESPGKTVTISCTRSSGNIDNNYVQWYQQRPGSSPTTVIYEDNQRPSGVPDRFSGSIDSSSNSASLTISGLKTEDEADYYCQSYDSDNQGVVFGGGTKLTVL
B2: SR-AB23: second-round (CDR-H3 mutagenesis) antibody, lineage SR-AB14; CDRs SEQ ID NO: 116-121 (antibody, V domains shown)
VH: B1 VH with V98R
VL: B1 VL

Columns and labels:
[1] = target: proTGFβ1 C4S (Homo sapiens, UniProt P01137, C33S); experiment: Octet binding of immobilized cycle 2 antibodies to C4S antigen; conditions: antibody immobilized (loading sample)
Source text: (§1) A modified proTGFβ1 complex (proTGFβ1 C4S) in which the cysteine residue at position 4 of the pro-domain has been substituted with a serine residue (described in WO 2014/182676) was used to assess antibody binding to C4S antigen by Octet. Cycle 2 antibodies were immobilized and tested against 3 antigens. As shown in the Tables below, robust antibody binding to LTBP-1 proTGFβ1 antigen (Table 23) and proTGFβ1C4S antigen was observed (Table 24), while binding to LRRC33 proTGFβ1 antigen was not observed (Table 25).

[2] = target: T1, murine LTBP1-proTGFβ1 (Mus musculus, UniProt P04202+Q8CG19); experiment: Murine LTBP overexpression caga assay: LN229 cells co-transfected with mouse LTBP1 and mouse proTGFβ1, CAGA12 reporter cells; type: cell-based; conditions: overexpressed murine LTBP1-proTGFβ1
T1 construct: expressed in transfected cells; host or cells: LN229
Method: Additionally, the ability of SR-AB2 to inhibit LTBP1/3-proTGFβ1 in a cell-based assay was also conducted. As essentially described above in Example 2, LN229 cells were seeded on fibronectin pre-coated assay wells and directly transfected with the indicated DNA molecules.
LTBP complex-specific antibodies from the first round of affinity maturation/optimization (i.e., SR-AB14, SR-AB16, SR-AB17, SR-AB18, SR-AB19) were selected for a second round of affinity maturation/optimization (i.e., CDR-H3 mutagenesis as described herein) and particular progeny antibodies (SR-AB20, SR-AB21, SR-AB22, SR-AB23, SR-AB24, SR-AB25, SR-AB26, SR-AB27, SR-AB28, and SR-AB29) were assessed for their ability to inhibit TGFβ activity using LN229 cells. For the assays depicted in FIGS. 13A, 13B, 14A, and 14B the following protocol was used, which is a modified version of Assay II in Example 2. […]
On day 0, prior to cell seeding, assay plates were coated with Fibronectin (LTBP over expression assay only). […] The cell pellet was resuspended in D10 media and viable cells per ml counted. […]

[3] = target: huLRRC33 proTGFβ1 (Homo sapiens, UniProt P01137); experiment: Octet binding of immobilized cycle 2 antibodies; set-up: modified human kappa light chain signal peptide (N); Histidine tag (C); conditions: antibody immobilized (loading sample)
Source text: as §1

T1 sequence (P04202 30-390): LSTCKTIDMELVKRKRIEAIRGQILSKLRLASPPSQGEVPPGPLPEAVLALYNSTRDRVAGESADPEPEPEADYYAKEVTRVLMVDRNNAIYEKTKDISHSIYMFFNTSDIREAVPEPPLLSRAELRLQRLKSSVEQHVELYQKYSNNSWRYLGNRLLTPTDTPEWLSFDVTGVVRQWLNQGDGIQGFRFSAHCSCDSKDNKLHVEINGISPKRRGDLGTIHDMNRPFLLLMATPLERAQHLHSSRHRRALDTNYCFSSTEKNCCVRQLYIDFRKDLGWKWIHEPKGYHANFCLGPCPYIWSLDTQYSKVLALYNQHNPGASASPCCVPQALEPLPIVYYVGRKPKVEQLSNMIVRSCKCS
T1 sequence (Q8CG19 339-1712 limits assumed): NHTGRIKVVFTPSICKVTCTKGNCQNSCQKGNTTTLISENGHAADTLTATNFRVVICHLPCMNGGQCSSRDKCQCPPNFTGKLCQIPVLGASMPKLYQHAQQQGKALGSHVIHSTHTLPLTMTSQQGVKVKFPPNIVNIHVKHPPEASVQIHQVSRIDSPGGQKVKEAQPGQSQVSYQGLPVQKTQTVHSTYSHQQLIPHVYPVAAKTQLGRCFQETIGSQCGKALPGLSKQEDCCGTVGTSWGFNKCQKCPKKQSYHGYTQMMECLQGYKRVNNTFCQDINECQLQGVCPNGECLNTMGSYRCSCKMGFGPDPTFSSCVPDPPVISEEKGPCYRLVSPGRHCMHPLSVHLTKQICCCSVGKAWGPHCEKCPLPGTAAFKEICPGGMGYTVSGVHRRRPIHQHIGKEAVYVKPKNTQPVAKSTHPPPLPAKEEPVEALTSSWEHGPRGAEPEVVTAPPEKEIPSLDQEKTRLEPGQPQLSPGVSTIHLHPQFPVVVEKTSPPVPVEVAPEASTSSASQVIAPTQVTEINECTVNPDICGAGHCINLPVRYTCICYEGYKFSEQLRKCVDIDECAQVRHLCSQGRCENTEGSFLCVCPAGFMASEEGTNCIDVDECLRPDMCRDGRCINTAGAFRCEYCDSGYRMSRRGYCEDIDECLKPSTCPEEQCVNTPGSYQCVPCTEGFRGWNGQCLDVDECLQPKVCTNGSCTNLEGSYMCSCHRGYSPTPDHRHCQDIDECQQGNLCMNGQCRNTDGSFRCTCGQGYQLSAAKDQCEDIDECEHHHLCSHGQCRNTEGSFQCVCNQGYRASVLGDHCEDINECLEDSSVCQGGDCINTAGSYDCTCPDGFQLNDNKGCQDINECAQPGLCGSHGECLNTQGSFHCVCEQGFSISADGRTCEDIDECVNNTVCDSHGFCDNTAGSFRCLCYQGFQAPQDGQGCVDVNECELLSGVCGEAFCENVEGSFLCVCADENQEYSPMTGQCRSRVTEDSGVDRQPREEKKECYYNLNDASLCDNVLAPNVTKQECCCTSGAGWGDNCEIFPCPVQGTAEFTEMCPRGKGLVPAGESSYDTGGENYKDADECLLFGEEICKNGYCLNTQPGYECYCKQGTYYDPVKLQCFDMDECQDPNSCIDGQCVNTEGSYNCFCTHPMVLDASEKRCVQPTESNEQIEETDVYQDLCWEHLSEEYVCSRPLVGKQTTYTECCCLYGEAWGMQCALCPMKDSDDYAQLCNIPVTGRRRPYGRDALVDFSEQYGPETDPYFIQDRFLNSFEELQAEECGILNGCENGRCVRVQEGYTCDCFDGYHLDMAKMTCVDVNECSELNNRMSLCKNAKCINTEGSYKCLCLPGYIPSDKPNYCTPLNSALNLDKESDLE
proTGFβ1 C4S, sequence (P01137 30-390 C33S): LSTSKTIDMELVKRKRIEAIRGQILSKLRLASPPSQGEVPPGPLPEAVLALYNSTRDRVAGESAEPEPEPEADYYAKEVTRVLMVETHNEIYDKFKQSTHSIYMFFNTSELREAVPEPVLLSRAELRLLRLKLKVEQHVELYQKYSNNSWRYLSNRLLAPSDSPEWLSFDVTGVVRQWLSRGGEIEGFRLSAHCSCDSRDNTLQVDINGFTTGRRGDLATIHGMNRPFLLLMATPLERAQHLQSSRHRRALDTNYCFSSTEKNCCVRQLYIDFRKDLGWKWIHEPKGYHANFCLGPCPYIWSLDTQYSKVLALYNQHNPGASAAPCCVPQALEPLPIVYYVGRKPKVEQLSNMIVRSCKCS
huLRRC33 proTGFβ1, sequence (P01137 30-390): as the sequence (P01137 30-390 C33S) above, with S4C counted along it
huLRRC33 proTGFβ1, sequence (Q86YC3 with tags, fused parts or gaps partner limits assumed): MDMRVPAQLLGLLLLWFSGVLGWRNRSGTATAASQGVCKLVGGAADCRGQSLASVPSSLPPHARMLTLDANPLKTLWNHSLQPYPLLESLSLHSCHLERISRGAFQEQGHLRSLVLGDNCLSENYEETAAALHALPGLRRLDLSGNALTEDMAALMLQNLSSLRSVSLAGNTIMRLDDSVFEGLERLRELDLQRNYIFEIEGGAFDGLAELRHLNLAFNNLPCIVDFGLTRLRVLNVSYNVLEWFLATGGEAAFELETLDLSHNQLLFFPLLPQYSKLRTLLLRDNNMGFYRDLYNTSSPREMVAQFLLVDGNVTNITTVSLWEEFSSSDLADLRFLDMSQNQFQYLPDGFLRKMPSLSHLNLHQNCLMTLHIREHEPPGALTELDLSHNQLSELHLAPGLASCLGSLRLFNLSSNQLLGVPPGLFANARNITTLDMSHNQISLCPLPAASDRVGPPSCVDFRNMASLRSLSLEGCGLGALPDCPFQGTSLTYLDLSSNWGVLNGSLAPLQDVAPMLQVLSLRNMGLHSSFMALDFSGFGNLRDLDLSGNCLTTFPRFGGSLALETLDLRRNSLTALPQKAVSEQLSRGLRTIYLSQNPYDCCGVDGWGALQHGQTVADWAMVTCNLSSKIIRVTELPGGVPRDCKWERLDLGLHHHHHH

Molecule | Response, binding to human TGFb1 C4S [1] [nm] | Inhibition of TGFβ1 activation (TGFβ activity, luciferase) [2] | Response, binding to human LRRC33 proTGFb1 [3] [nm]
B1 | 0.2937 | improved potency | 0.1329
B2 | 0.2263 | improved potency | 0.0233
